target: T1, HLA-B*44:05 (human); assay: UV peptide exchange, anti-b2m ELISA
T1 construct: also called peptide-receptive MHC class I molecule
How it was run: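 Peptide-receptive HLA-B*44:05 monomers after UV-induced exchange were diluted 100-fold and captured on streptavidin-coated plates for 1 h at 37 °C. Bound complexes were detected with 2 µg/ml HRP-anti-β2m (1 h, 37 °C) and TMB, read at 450 nm. β2m signal reflects peptide-stabilized complex yield.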

| Binder | peptide exchange yield [%] |
| --- | --- |
| GEDAHLTQY | 20 to 50 |
| AEMKFYVVI | 50 to 75 |
| AEYQAAILHL | 50 to 75 |
| LEWQNSSSM | 50 to 75 |
| DEIRVFGY | 20 to 50 |
| GELAPSHGL | 50 to 75 |
| EMREERKF | 20 to 50 |
| AEQEIMKKV | > 75 |
| HELESENKKW | 50 to 75 |
| IEYENQKRL | 20 to 50 |
| AEPPILYSEY | 20 to 50 |
| AEVQIARKL | 50 to 75 |
| HENGVLTKF | 20 to 50 |
| AEKNRRDAETW | > 75 |
| KQTEATMTF | 20 to 50 |
| KELEATKQYL | 50 to 75 |
| AENPLNIFYI | 50 to 75 |
| KEVASNSEL | 50 to 75 |
| KEWEREKAVSL | 50 to 75 |
| EEPKIDFRVY | 50 to 75 |
| DEIFTNDRRW | 20 to 50 |
| EEINQGGRKY | 50 to 75 |
| DEYLIPQQGFF | 20 to 50 |
| EGEDAHLTQY | 20 to 50 |
| FELECPVKY | 50 to 75 |
| AERIMFSDL | > 75 |
| AENPLNIFY | > 75 |

Further lines, results first:

| peptide exchange yield [%] | Binder |
| --- | --- |
| > 75 | TEFQQIINL |
| > 75 | QEVNISLHY |
| > 75 | RELGFTEATGW |
| 50 to 75 | SETPTLQGL |
| 50 to 75 | SEHLFGTSY |
| 50 to 75 | SEPQITVNF |
| > 75 | SEFDLEQVW |
| 10 to 20 | YEWEPFAEV |
| 50 to 75 | QELSSIRQF |
| > 75 | SEADWLRFW |
| 50 to 75 | NEVKEIKGY |
| 50 to 75 | SEQHSLPVF |
| 50 to 75 | VEVIPEGAML |
| 50 to 75 | REESDWHYL |
| 20 to 50 | SENKKWVEF |
| > 75 | RELLDFSSW |
| > 75 | SDDLRNVTW |
| 20 to 50 | RLWPEPENW |
| > 75 | REKDLPNYNW |
| 20 to 50 | SEGTLPYSY |
| > 75 | YEQLLKVVTW |
| 50 to 75 | MEQQSQEY |
| > 75 | RELVHMINW |
| > 75 | REYEYDLKW |
| 10 to 20 | RRHPSFKRF |
| > 75 | SETAVVNVTY |
| 50 to 75 | SESSSFLKV |
